T1: recombinant human CXCL1 protein (human, UniProt P09341 35-107)
T1 construct: also called human chemokine CXCL1; soluble recombinant human CXCL1
T1 sequence: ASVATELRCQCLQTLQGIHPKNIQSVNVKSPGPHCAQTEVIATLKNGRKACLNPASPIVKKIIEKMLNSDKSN

T2: mouse CXCL1 (mouse, UniProt P12850 25-96, limits assumed)
T2 sequence (looked up): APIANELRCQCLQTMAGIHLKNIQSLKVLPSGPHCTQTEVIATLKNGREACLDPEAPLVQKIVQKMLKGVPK

T3: rat CXCL1 (rat, UniProt P14095 25-96, limits assumed)
T3 sequence (looked up): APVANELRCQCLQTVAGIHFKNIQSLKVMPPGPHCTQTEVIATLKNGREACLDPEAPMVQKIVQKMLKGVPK


Tests used:
[1] = biological target: T1, recombinant human CXCL1 protein; test: ELISA, human CXCL1 coated 30 ng per well, IgG 1/10 dilute original, donkey anti-human HRP, TMB
Procedure: The human CXCL1 protein was coated onto 96-well, 30 ng for well at 4° C. overnight. The plate was blocked by 3% skim milk in PBS 2 h at room temperature. The plate was washed 3 times with PBST and applied anti-human CXCL1 humanized version IgG antibodies were diluted 1/100 and 1/10 in PBS and subjected into antigen coated plate for 1 h at room temperature. The donkey anti-human monoclonal antibody with HRP conjugate antibody was diluted 1/3000 and applied for 45 min at room temperature, afterwards washed 3 times with PBST and developed with TMB solution.

[2] = biological target: T1, recombinant human CXCL1 protein; test: apparent affinity-binding constant, in serum 1:40 dilution; method not stated; serum, 1:40 dilution
[3] = biological target: T1, recombinant human CXCL1 protein; test: apparent affinity-binding constant, in PBS; method not stated; in PBS
mouse CXCL1 = biological target: T2, mouse CXCL1; test: immunoblot strip (the text does not name the assay); 10, 20 and 30 ng of CXCL1 of each species loaded
rat CXCL1 = biological target: T3, rat CXCL1; test: as above
[4] = biological target: T1, recombinant human CXCL1 protein; test: apparent KD from the absorbance (450 nm) curve in human serum diluted 1:4

Row | ELISA signals [1] | Kd [2] | Kd [3] | binding result (mouse CXCL1) | binding result (rat CXCL1) | Kd [4] | Binder
1 | 2.1 |  |  |  |  |  | Hum2401 IgG antibody (antibody, V domains shown, also called Hum2401 Ab; Pcmvdhfr-Hum2401(H+L)) VH: QVQLVESGGGLVQPGGSLRLSCKASGYTFTSYYIYWVRQAPGKGLEWIGEIDPSHGGPTFNEKFKNRFTISRDNSKNTLYLQMNSLRAEDTAVYYCTRESGTGAMDYWGQGTLVTVSS VL: DIQMTQSPSSLSASVGDRATISCKASQSVDYDGDSYVNWYQQKPGKAPKLLIYAASNLESGIPSRFSGSGSGTDFTLTISSLQPEDFATYYCQQSSEDPWTFGQGTKVEIKR
2 |  | 0.252 µg/mL | 0.176 µg/mL | no binding (tested: 30 ng) | no binding (tested: 30 ng) | 0.387 µg/mL | anti-CXCL1 neutralizing monoclonal mouse antibody (HL2401) (antibody, V domains shown, also called CXCL1 mAb (HL2401); mouse anti-human CXCL1 antibody HL2401) VH: EVKLVESGAELVKPGASVKLSCKASGYTFTSYYIYWVKQRPGQGLEWIGEIDPSHGGPTFNEKFKNKATLTVDKSSSTAYMQLSSLTSDDSAVYYCTRESGTGAMDYWGQGTTLTVSS VL: DIVLTQSPASLAVSLGQRATISCKASQSVDYDGDSYVNWYQQKPGQPPKLLIYAASNLESRIPARFSGSGSGTDFTLNILPVEEDDGATYYCQQSSEDPWTFGGGTKLEIKR
